Measured values: PMC4686829

Key:
[1] = target: HA glycoprotein of A/goose/Shantou/1621/2005 (H5N1, clade 9) (influenza A virus A/goose/Shantou/1621/2005 (H5N1))
[2] = target: HA glycoprotein of A/duck/Guangxi/1378/2004 (H5N1, clade 5) (influenza A virus A/duck/Guangxi/1378/2004 (H5N1))
[3] = target: HA glycoprotein of A/blackbird/Hunan/1/2004 (H5N1, clade 6) (influenza A virus A/blackbird/Hunan/1/2004 (H5N1))
[4] = target: HA glycoprotein of A/Indonesia/5/2005 (H5N1, clade 2.1.3.2) (influenza A virus A/Indonesia/5/2005 (H5N1))
[5] = target: HA glycoprotein of A/goose/Guiyang/337/2006 (H5N1, clade 4) (influenza A virus A/goose/Guiyang/337/2006 (H5N1))
[6] = target: HA glycoprotein of A/Thailand/(KAN-1)/2004 (H5N1, clade 1) (influenza A virus A/Thailand/(KAN-1)/2004 (H5N1))
[7] = target: HA glycoprotein of A/chicken/Guangxi/12/2004 (H5N1, clade 2.4) (influenza A virus A/chicken/Guangxi/12/2004 (H5N1))
[8] = target: HA glycoprotein of A/chicken/Korea/es/2003 (H5N1, clade 2.5) (influenza A virus A/chicken/Korea/es/2003 (H5N1))
[9] = target: HA glycoprotein of A/chicken/Henan/16/2004 (H5N1, clade 8) (influenza A virus A/chicken/Henan/16/2004 (H5N1))
[10] = target: HA glycoprotein of A/Shenzhen/406H/2006 (H5N1, clade 2.3.4) (influenza A virus A/Shenzhen/406H/2006 (H5N1))
[11] = target: HA glycoprotein of A/common magpie/Hong Kong/5052/2007 (H5N1, clade 2.3.2.1) (influenza A virus A/common magpie/Hong Kong/5052/2007 (H5N1))
[12] = target: HA glycoprotein of A/Turkey/65596/2006 (H5N1, clade 2.2.1) (influenza A virus A/Turkey/65596/2006 (H5N1))
[13] = target: HA glycoprotein of A/Hong Kong/156/1997 (H5N1, clade 0) (influenza A virus A/Hong Kong/156/1997 (H5N1)) (UniProt O56140)
[14] = target: HA glycoprotein of A/silky chicken/Hong Kong/SF189/2001 (H5N1, clade 3) (influenza A virus A/silky chicken/Hong Kong/SF189/2001 (H5N1))
[15] = target: HA glycoprotein of A/Chicken/Vietnam/NCVD-03/08 (H5N1, clade 7.1) (influenza A virus A/Chicken/Vietnam/NCVD-03/08 (H5N1))
[16] = target: HA glycoprotein of A/Chicken/Vietnam /NCVD-16/08 (H5N1, clade 7.1) (influenza A virus A/Chicken/Vietnam/NCVD-16/08 (H5N1))

Substance: 65C6, full-length human IgG1 (antibody)
- IC50 of neutralisation of pseudovirus bearing this HA [1]: 0.007 µg/mL
- IC50 of neutralisation of pseudovirus bearing this HA [2]: 5 ng/mL
- IC50 of neutralisation of pseudovirus bearing this HA [3]: 7 ng/mL
- IC50 of neutralisation of pseudovirus bearing this HA [4]: 0.004 µg/mL
- IC50 of neutralisation of pseudovirus bearing this HA [5]: 0.025 µg/mL
- IC50 of neutralisation of pseudovirus bearing this HA [6]: 0.029 µg/mL
- IC50 of neutralisation of pseudovirus bearing this HA [7]: 0.005 µg/mL
- IC50 of neutralisation of pseudovirus bearing this HA [8]: 0.005 µg/mL
- IC50 of neutralisation of pseudovirus bearing this HA [9]: 0.014 µg/mL
- IC50 of neutralisation of pseudovirus bearing this HA [10]: 0.02 µg/mL
- IC50 of neutralisation of pseudovirus bearing this HA [11]: 0.034 µg/mL
- IC50 of neutralisation of pseudovirus bearing this HA [12]: 2 ng/mL
- IC50 of neutralisation of pseudovirus bearing this HA [13]: 5 ng/mL
- IC50 of neutralisation of pseudovirus bearing this HA [14]: 0.011 µg/mL

Substance: 100F4, full-length human IgG1 (antibody)
- IC50 of neutralisation of pseudovirus bearing this HA [1]: 0.011 µg/mL
- IC50 of neutralisation of pseudovirus bearing this HA [2]: 21 ng/mL
- IC50 of neutralisation of pseudovirus bearing this HA [3]: 33 ng/mL
- IC50 of neutralisation of pseudovirus bearing this HA [4]: 0.013 µg/mL
- IC50 of neutralisation of pseudovirus bearing this HA [5]: 0.019 µg/mL
- IC50 of neutralisation of pseudovirus bearing this HA [6]: 0.067 µg/mL
- IC50 of neutralisation of pseudovirus bearing this HA [7]: 0.015 µg/mL
- IC50 of neutralisation of pseudovirus bearing this HA [8]: 0.016 µg/mL
- IC50 of neutralisation of pseudovirus bearing this HA [9]: 0.036 µg/mL
- IC50 of neutralisation of pseudovirus bearing this HA [10]: 0.052 µg/mL
- IC50 of neutralisation of pseudovirus bearing this HA [11]: 0.066 µg/mL
- IC50 of neutralisation of pseudovirus bearing this HA [12]: 4 ng/mL
- IC50 of neutralisation of pseudovirus bearing this HA [13]: 50 ng/mL
- IC50 of neutralisation of pseudovirus bearing this HA [14]: 0.022 µg/mL

Substance: AVFluIgG03, full-length human IgG1 (antibody)
- IC50 of neutralisation of pseudovirus bearing this HA [1]: 0.018 µg/mL
- IC50 of neutralisation of pseudovirus bearing this HA [2]: 9 ng/mL
- IC50 of neutralisation of pseudovirus bearing this HA [3]: 4 ng/mL
- IC50 of neutralisation of pseudovirus bearing this HA [4]: 4.75 µg/mL
- IC50 of neutralisation of pseudovirus bearing this HA [15]: 0.069 µg/mL
- IC50 of neutralisation of pseudovirus bearing this HA [10]: 0.002 µg/mL
- IC50 of neutralisation of pseudovirus bearing this HA [12]: 1860 ng/mL
- IC50 of neutralisation of pseudovirus bearing this HA [16]: 0.03 µg/mL
- IC50 of neutralisation of pseudovirus bearing this HA [13]: 8 ng/mL
- IC50 of neutralisation of pseudovirus bearing this HA [14]: 0.069 µg/mL
